Among the data in doi:10.1101/2025.05.08.652848 (bioRxiv, 2025) are Kd, binding result and fraction of PPARG capable of binding CoA values, retold here.

Test [1] concerns the target His-PPARG LBD (human PPARG ligand-binding domain, residues 231 to 505), wild type (human) (UniProt P37231). Kind of test: AlphaScreen or HTRF.
The target of test [2] is T1, RXRA^WT:PPARG LBD heterodimer (human, UniProt P37231;P19793).
T1 sequence 1: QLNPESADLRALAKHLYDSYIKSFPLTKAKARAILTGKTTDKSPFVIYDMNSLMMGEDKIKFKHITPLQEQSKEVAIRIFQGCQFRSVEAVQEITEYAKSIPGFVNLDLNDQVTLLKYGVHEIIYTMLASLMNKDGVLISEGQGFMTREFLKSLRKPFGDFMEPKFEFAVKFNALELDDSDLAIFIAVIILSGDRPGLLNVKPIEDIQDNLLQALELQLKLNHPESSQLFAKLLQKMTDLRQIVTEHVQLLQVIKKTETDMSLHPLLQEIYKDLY
T1 sequence 2: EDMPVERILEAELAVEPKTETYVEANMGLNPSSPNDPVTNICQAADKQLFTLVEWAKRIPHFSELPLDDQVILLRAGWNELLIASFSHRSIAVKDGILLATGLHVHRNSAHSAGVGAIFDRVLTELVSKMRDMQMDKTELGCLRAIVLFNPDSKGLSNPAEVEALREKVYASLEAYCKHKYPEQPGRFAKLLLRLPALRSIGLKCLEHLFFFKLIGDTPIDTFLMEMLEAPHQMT
Kind of test: AlphaScreen or HTRF.

Test [3] addresses N-terminal Avi-tagged PPARG LBD, FTX-6746-modified (human). Kind of test: SPR. A general note: Surface plasmon resonance follows binding to a sensor surface in real time, without labels.
Test [4] deals with N-terminal Avi-tagged PPARG LBD, unmodified (DMSO) (human). Kind of test: SPR.

*: point of attachment. Biotin = O=C1N[C@H]2[C@H](CS[C@H]2CCCCC(=O)*)N1 A value given as a limit tells only on which side of the number the result lay.

In general, Kd refers to the concentration at which binding is half-saturated. The low end stands for tighter binding, the high end for weaker binding. On to biotinylated MED1 LxxLL peptide, for which, in test [1], the dissociation constant Kd is more than 2500 nM.

B1: biotinylated NCOR1 ID2 peptide (peptide)
peptide: Biotin-GHSFADPASNLGLEDIIRKALMG-NH2
SMILES: CC[C@H](C)[C@H](NC(=O)[C@H](CC(=O)O)NC(=O)[C@H](CCC(=O)O)NC(=O)[C@H](CC(C)C)NC(=O)CNC(=O)[C@H](CC(C)C)NC(=O)[C@H](CC(N)=O)NC(=O)[C@H](CO)NC(=O)[C@H](C)NC(=O)[C@@H]1CCCN1C(=O)[C@H](CC(=O)O)NC(=O)[C@H](C)NC(=O)[C@H](Cc1ccccc1)NC(=O)[C@H](CO)NC(=O)[C@H](Cc1c[nH]cn1)NC(=O)CNC(=O)CCCC[C@@H]1SC[C@@H]2NC(=O)N[C@@H]21)C(=O)N[C@H](C(=O)N[C@@H](CCCNC(=N)N)C(=O)N[C@@H](CCCCN)C(=O)N[C@@H](C)C(=O)N[C@@H](CC(C)C)C(=O)N[C@@H](CCSC)C(=O)NCC(N)=O)[C@@H](C)CC
B1: the binding result in test [2] is on record as “binds”.

B2: biotinylated MED1 LxxLL peptide (peptide)
peptide: Biotin-VSSMAGNTKNHPMLMNLLKDNPAQ-NH2
SMILES: CSCC[C@H](NC(=O)[C@H](CO)NC(=O)[C@H](CO)NC(=O)[C@@H](NC(=O)CCCC[C@@H]1SC[C@@H]2NC(=O)N[C@@H]21)C(C)C)C(=O)N[C@@H](C)C(=O)NCC(=O)N[C@@H](CC(N)=O)C(=O)N[C@H](C(=O)N[C@@H](CCCCN)C(=O)N[C@@H](CC(N)=O)C(=O)N[C@@H](Cc1c[nH]cn1)C(=O)N1CCC[C@H]1C(=O)N[C@@H](CCSC)C(=O)N[C@@H](CC(C)C)C(=O)N[C@@H](CCSC)C(=O)N[C@@H](CC(N)=O)C(=O)N[C@@H](CC(C)C)C(=O)N[C@@H](CC(C)C)C(=O)N[C@@H](CCCCN)C(=O)N[C@@H](CC(=O)O)C(=O)N[C@@H](CC(N)=O)C(=O)N1CCC[C@H]1C(=O)N[C@@H](C)C(=O)N[C@@H](CCC(N)=O)C(N)=O)[C@@H](C)O
B2: in test [3], the fraction of PPARG capable of binding CoA is 34%. Besides, in test [4], the fraction of PPARG capable of binding CoA was determined as 82%. Also, in test [2], binding was characterised by a dissociation constant (Kd) of 270 nM and the binding result is listed as “binds”.
